2 molecules from article PMC8876890, “Engineering Chimeras by Fusing Plant Receptor-like Kinase EMS1 and BRI1 Reveals the Two Receptors’ Structural Specificity and Molecular Mechanisms” (International Journal of Molecular Sciences, 2022) can be followed below.

For one assay, the target named is T1, BSK1-His (UniProt Q944A7 1-512).
T1 construct: BSK1, receptor-like cytoplasmic kinase of subfamily RLCK-XII, full-length cDNA in pET-28a; The species is most likely Arabidopsis thaliana, the plant of the whole study; source: E. coli BL21 (DE3), purified (Ni-NTA Agarose)
T1 sequence (Q944A7 whole entry): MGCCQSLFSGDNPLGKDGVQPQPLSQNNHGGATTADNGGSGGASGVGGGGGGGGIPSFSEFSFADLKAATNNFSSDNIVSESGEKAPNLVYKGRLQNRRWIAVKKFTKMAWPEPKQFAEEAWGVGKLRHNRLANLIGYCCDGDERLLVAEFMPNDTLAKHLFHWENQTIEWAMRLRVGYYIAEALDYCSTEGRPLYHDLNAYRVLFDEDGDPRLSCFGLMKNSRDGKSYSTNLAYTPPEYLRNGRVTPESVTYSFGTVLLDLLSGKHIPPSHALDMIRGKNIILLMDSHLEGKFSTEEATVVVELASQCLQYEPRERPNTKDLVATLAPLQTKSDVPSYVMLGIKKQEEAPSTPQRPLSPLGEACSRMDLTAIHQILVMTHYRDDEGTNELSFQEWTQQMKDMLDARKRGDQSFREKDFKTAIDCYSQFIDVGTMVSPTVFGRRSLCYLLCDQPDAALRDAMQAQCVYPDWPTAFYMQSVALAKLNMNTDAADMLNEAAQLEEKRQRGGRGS
Description: pull-down; GST fusion proteins on Glutathione Sepharose 4B beads, incubated with BSK1-His or BSK3-His 4-6 h at 4 °C, washed 6-8 times with His lysis buffer; blot with His and GST antibodies. As to conditions: both partners purified.

Another assay concerns the target T2, BSK3-His (UniProt Q8W4L3 1-489).
T2 construct: BSK3, receptor-like cytoplasmic kinase of subfamily RLCK-XII, full-length cDNA in pET-28a; The species is most likely Arabidopsis thaliana, the plant of the whole study; source: E. coli BL21 (DE3), purified (Ni-NTA Agarose)
Described as above. As to conditions: both partners purified.

T2 sequence (Q8W4L3 whole entry): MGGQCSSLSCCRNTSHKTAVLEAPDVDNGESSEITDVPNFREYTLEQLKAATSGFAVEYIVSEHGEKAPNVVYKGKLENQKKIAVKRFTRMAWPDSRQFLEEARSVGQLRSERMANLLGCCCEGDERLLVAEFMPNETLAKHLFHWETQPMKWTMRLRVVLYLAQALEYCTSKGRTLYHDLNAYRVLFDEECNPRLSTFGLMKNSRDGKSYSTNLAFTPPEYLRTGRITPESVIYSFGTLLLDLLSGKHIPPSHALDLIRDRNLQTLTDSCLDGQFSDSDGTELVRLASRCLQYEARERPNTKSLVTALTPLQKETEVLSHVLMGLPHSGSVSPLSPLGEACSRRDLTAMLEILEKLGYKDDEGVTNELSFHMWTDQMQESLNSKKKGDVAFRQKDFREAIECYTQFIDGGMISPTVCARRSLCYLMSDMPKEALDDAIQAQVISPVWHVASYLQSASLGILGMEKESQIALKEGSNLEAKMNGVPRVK

B1: GST-EMS1-CD (domain or fragment, Arabidopsis thaliana, UniProt Q9LYN8 849-1192, looked up)
chain: RRWAMTKRVKQRDDPERMEESRLKGFVDQNLYFLSGSRSREPLSINIAMFEQPLLKVRLGDIVEATDHFSKKNIIGDGGFGTVYKACLPGEKTVAVKKLSEAKTQGNREFMAEMETLGKVKHPNLVSLLGYCSFSEEKLLVYEYMVNGSLDHWLRNQTGMLEVLDWSKRLKIAVGAARGLAFLHHGFIPHIIHRDIKASNILLDGDFEPKVADFGLARLISACESHVSTVIAGTFGYIPPEYGQSARATTKGDVYSFGVILLELVTGKEPTGPDFKESEGGNLVGWAIQKINQGKAVDVIDPLLVSVALKNSQLRLLQIAMLCLAETPAKRPNMLDVLKALKEI
notes: EXCESS MICROSPOROCYTES1 (EMS1) LRR receptor-like kinase, Arabidopsis thaliana, cytoplasmic domain, residues 849-1192, cloned into pGEX-4T-3; also called cytoplasmic domain of EMS1; EMS1 kinase domain; source: E. coli BL21 (DE3), purified (Glutathione Sepharose 4B)
Take B1: the binding result in the assay with BSK1-His and with BSK3-His was “binds” throughout.

B2: GST-BRI1-CD (domain or fragment, Arabidopsis thaliana, UniProt O22476 814-1196, looked up)
chain: GREMRKRRRKKEAELEMYAEGHGNSGDRTANNTNWKLTGVKEALSINLAAFEKPLRKLTFADLLQATNGFHNDSLIGSGGFGDVYKAILKDGSAVAIKKLIHVSGQGDREFMAEMETIGKIKHRNLVPLLGYCKVGDERLLVYEFMKYGSLEDVLHDPKKAGVKLNWSTRRKIAIGSARGLAFLHHNCSPHIIHRDMKSSNVLLDENLEARVSDFGMARLMSAMDTHLSVSTLAGTPGYVPPEYYQSFRCSTKGDVYSYGVVLLELLTGKRPTDSPDFGDNNLVGWVKQHAKLRISDVFDPELMKEDPALEIELLQHLKVAVACLDDRAWRRPTMVQVMAMFKEIQAGSGIDSQSTIRSIEDGGFSTIEMVDMSIKEVPEGKL
notes: BRASSINOSTEROID … 1 (BRI1) LRR receptor-like kinase, Arabidopsis thaliana, cytoplasmic domain, residues 814-1196, cloned into pGEX-4T-3; also called cytoplasmic domain of BRI1; source: E. coli BL21 (DE3), purified (Glutathione Sepharose 4B)
In the case of B2, the binding result with BSK1-His and with BSK3-His was “binds” throughout.
